In patent US20240301086A1 (APTEVO RESEARCH AND DEVELOPMENT, published 2024):

T1: human Fcγ receptor IIA, R167 variant (human, UniProt P12318 36-218)
T1 construct: also called Type IIA R167
T1 sequence (looked up): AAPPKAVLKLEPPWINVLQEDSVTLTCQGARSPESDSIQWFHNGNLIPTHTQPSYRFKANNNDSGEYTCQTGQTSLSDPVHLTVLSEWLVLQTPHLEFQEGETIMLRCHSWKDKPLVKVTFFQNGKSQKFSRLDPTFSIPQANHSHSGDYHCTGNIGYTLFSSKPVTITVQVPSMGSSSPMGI

T2: human Fcγ receptor IIB/C (human, UniProt P31994 46-217)
T2 sequence (looked up): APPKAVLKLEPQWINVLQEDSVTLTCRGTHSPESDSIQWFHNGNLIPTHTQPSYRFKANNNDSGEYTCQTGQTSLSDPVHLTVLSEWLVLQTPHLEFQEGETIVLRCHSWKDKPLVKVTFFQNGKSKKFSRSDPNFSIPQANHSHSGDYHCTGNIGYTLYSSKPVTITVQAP

T3: human Fcγ receptor IIA, H167 variant (human, UniProt P12318 36-218)
T3 sequence (looked up): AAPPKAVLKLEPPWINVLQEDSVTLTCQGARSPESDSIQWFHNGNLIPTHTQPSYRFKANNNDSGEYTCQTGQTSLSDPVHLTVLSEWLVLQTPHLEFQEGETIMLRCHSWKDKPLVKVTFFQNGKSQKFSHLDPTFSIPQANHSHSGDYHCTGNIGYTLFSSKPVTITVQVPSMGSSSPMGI


Key:
[1] = target: T4, Human PSMA ECD-AFH (TSC033), recombinant dimeric PSMA ECD (human, UniProt Q04609 44-750); assay: SPR (Biacore), recombinant dimeric PSMA ECD
T4 construct: SEC-purified dimer; also called HuPSMA-AFH; Avi-His-Human PSMA ECD
T4 sequence (Q04609 other isoform, or with tags, fused parts or gaps): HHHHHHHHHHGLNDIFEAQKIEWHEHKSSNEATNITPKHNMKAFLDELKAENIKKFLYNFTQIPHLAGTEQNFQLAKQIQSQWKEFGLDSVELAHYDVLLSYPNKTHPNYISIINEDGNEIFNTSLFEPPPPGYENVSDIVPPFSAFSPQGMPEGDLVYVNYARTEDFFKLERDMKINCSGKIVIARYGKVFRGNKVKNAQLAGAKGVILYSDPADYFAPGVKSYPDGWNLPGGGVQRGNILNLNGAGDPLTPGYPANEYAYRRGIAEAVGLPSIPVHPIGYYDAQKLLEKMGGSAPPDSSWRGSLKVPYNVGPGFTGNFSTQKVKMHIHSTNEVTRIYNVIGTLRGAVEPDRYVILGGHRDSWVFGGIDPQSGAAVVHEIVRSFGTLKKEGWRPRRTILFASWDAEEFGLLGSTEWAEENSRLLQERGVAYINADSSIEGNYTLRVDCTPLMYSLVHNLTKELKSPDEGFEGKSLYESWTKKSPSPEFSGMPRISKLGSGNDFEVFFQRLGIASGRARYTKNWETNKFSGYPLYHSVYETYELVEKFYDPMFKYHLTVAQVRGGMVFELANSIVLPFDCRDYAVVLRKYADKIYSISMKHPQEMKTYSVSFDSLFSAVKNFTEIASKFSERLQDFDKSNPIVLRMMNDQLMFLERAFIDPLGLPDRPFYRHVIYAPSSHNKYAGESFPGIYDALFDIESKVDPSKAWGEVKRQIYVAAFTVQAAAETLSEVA
Procedure: Mouse anti-human IgG (GE, BR-1008-39) at 25 μg/ml in 10 mM sodium acetate pH 5.0 was immobilized at a density of ˜2,000-4,000 response units (RU) onto each flow cell of a CM5 research-grade sensor chip (GE) by standard amine coupling chemistry. Each anti-PSMA protein at approximately 40 nM in dPBS with 0.2% BSA buffer was captured in a flow cell with the immobilized anti-human IgG at a flow rate of […] for up to 30 seconds, leaving one flow cell surface unmodified as the reference. Using a multi-cycle kinetics mode, a buffer blank and […] different concentrations of ECD ranging from 1 nM to 243 nM were sequentially injected through each flow cell at 30 μL/min with association times varying from 300-600 seconds and dissociation times varying from 600-1200 seconds. Regeneration was achieved by injection of 3 M MgCl₂ at a flow rate of 30 μL/min for up to 40 seconds followed by dPBS with 0.2% BSA buffer stabilization for 1 min.
The KD was determined for a set of PSMA×CD3 bispecific proteins binding to recombinant dimeric PSMA ECD using SPR. In comparison to the constructs analyzed in Table 3, which all had the anti-PSMA scFv in the VL-VH orientation, the constructs in Table 11 have sequences with the reverse the order of the variable domains. The constructs below utilize the PSMA01023 anti-PSMA sequence as a basis.

[2] = target: T1, human Fcγ receptor IIA, R167 variant; assay: SPR (Biacore T200), construct amine-coupled, Fcγ receptor titrated 375-6000 nM, 1:1 fit
Procedure: (§1) The Fc region incorporated into anti-PSMA bispecific constructs contained mutations intended to reduce or abolish binding to common human and cynomolgus Fc gamma receptors. SPR experiments were conducted at 25° C. in HBS-EP+ with 0.2% BSA buffer on a Biacore T200 system to evaluate the impact of these mutations on binding. For these experiments, three flow cells of a CM5 sensor chip were immobilized with anti-PSMA bispecifics by standard amine coupling to a response level of ˜2000 RU. A blank immobilization was performed on flow cell #1 for purposes of background signal subtraction. Both human and cynomolgus monkey Fcγ receptors (purchased from R&D Systems) were diluted in HBS-EP+ with 0.2% BSA to 4-6 μM and then flowed as analytes at 30 μL/min for 120 seconds followed by a 240 second dissociation step. No regeneration step was required. Blank-subtracted sensorgrams were visually inspected for binding to each of the Fcγ receptor proteins. […] Attenuated binding to Fcγ receptors IIA (both polymorphic variants) and IIB/C was observed. PSMA01107 and PSMA01108 share the same Fc amino acid sequence and therefore equivalent Fcγ receptor binding behavior was expected.
(§2) TSC266 (PSMA×CD3 bispecific antibody) and another protein containing a wild-type IgG1 Fc sequence were also analyzed for comparison. Sensorgrams obtained from kinetic SPR measurements were analyzed by the double subtraction method in the Biacore T200 evaluation software. Kinetic parameters were derived from a one-to-one binding fit model and reported below in Table 8. Both TSC266 and PSMA01107 show reduced binding compared to a wild type IgG1 Fc.

[3] = target: T2, human Fcγ receptor IIB/C; assay: as above
Procedure: as §1, §2

[4] = target: T3, human Fcγ receptor IIA, H167 variant; assay: as above
Procedure: as §1, §2

[5] = target: T5, recombinant human FcRn/b2M complex (human, UniProt P55899 24-297; P61769 21-119, limits assumed); assay: SPR at pH 6.0, hFcRn/b2M amine-coupled, construct 1-81 nM as analyte, two-state reaction model fit
T5 construct: also called hFcRn/b2M; neonatal Fc receptor
Procedure: Recombinant FcRn/b2M protein was generated via transient transfection of HEK-293 cells with a bi-cistronic vector containing the genes for both FcRn and […]. The complex was purified using IMAC chromatography and subsequently buffer exchanged into PBS buffer after verifying purity of the IMAC eluate by analytical SEC. Purified hFcRn/b2M at 5 μg/ml in 10 mM sodium acetate (pH 5.0) was immobilized on a CM5 chip by direct amine coupling chemistry to a level of ˜400 RU. A reference flow cell was left blank.
Different concentrations of the Fc variant protein (1-81 nM by 3-fold dilutions in HBS-EP+ with 0.2% BSA running buffer at pH 6.0) including running buffer as blank were injected in randomized order at 30 μL/min for 180 seconds followed by a 180 second dissociation period. Optimal regeneration was achieved by two injections of HBS-EP+ with 0.2% BSA at pH 7.5 at a flow rate of […] for 30 seconds followed by running buffer stabilization for 1 minute.
Sensorgrams obtained from kinetic SPR measurements were analyzed by the double subtraction method. […] Buffer reference was subtracted from analyte binding responses, and the final double-referenced data were analyzed with Biacore T200 Evaluation software (2.0, GE), globally fitting data to derive kinetic parameters. […]

Kd [1] [nM]	Kd [2] [nM]	Kd [3] [nM]	Kd [4] [nM]	Kd [5] [nM]	Binder
< 10	5300	6500	19900	47	PSMA01107 Anti-PSMA scFv x Fc x linker x Anti CD3 scFv; Anti PSMA scFv x Fc (bispecific antibody, Heterodimer, bivalent for PSMA and monovalent for CD3 (VH-VL scFv at the C-terminus); also called PSMA1107) chain 1: QVQLVQSGAEVKKPGASVKVSCKASGYTFTDYYMHWVRQAPGQGLEWMGYFNPYNDYTRYAQKFQGRVTMTRDTSTSTVYMELSSLRSEDTAVYYCARSDGYYDAMDYWGQGTTVTVSSGGGGSGGGGSGGGGSGGGGSDIQMTQSPSSLSASVGDRVTITCRASKSISKYLAWYQQKPGKAPKLLIHSGSSLESGVPSRFSGSGSGTEFTLTISSLQPDDFATYYCQQHIEYPWTFGQGTKVEIKEPKSSDKTHTCPPCPAPPAAAPSVFLFPPKPKDTLMISRTPEVTCVVVDVSHEDPEVKFNWYVDGVEVHNAKTKPREEQYNSTYRVVSVLTVLHQDWLNGKEYKCAVSNKALPAPIEKTISKAKGQPREPQVYTLPPSRDELTKNQVSLWCLVKGFYPSDIAVEWESNGQPENNYKTTPPVLDSDGSFFLYSKLTVDKSRWQQGNVFSCSVMHEALHNHYTQKSLSLSPGGGGSPSQVQLVQSGAEVKKPGASVKVSCKASGYTFTRSTMHWVRQAPGQGLEWIGYINPSSAYTNYAQKFQGRVTLTADKSTSTAYMELSSLRSEDTAVYYCASPQVHYDYNGFPYWGQGTLVTVSSGGGGSGGGGSGGGGSGGGGSDIQMTQSPSSLSASVGDRVTITCRASSSVSYMNWYQQKPGKAPKRWIYDSSKLASGVPSRFSGSGSGTDFTLTISSLQPEDFATYYCQQWSRNPPTFGQGTKVEIKRS chain 2: QVQLVQSGAEVKKPGASVKVSCKASGYTFTDYYMHWVRQAPGQGLEWMGYFNPYNDYTRYAQKFQGRVTMTRDTSTSTVYMELSSLRSEDTAVYYCARSDGYYDAMDYWGQGTTVTVSSGGGGSGGGGSGGGGSGGGGSDIQMTQSPSSLSASVGDRVTITCRASKSISKYLAWYQQKPGKAPKLLIHSGSSLESGVPSRFSGSGSGTEFTLTISSLQPDDFATYYCQQHIEYPWTFGQGTKVEIKEPKSSDKTHTCPPCPAPPAAAPSVFLFPPKPKDTLMISRTPEVTCVVVDVSHEDPEVKFNWYVDGVEVHNAKTKPREEQYNSTYRVVSVLTVLHQDWLNGKEYKCAVSNKALPAPIEKTISKAKGQPREPQVYTLPPSRDELTKNQVSLSCAVKGFYPSDIAVEWESNGQPENNYKTTPPVLDSDGSFFLVSKLTVDKSRWQQGNVFSCSVMHEALHNHYTQKSLSLSPG
< 10	–	–	–	19	PSMA01108 Anti-PSMA scFv x Fc x linker x Anti CD3 scFv; Anti PSMA scFv x Fc (bispecific antibody, also called PSMA1108; PSAM01108) chain 1: QVQLVQSGAEVKKPGASVKVSCKASGYTFTDYYMHWVRQAPGQGLEWMGYFNPYNDYTRYAQKFQGRVTMTRDTSTSTVYMELSSLRSEDTAVYYCARSDGYYDAMDYWGQGTTVTVSSGGGGSGGGGSGGGGSGGGGSDIQMTQSPSSLSASVGDRVTITCRASKSISKYLAWYQQKPGKAPKLLIHSGSSLESGVPSRFSGSGSGTEFTLTISSLQPDDFATYYCQQHIEYPWTFGQGTKVEIKEPKSSDKTHTCPPCPAPPAAAPSVFLFPPKPKDTLMISRTPEVTCVVVDVSHEDPEVKFNWYVDGVEVHNAKTKPREEQYNSTYRVVSVLTVLHQDWLNGKEYKCAVSNKALPAPIEKTISKAKGQPREPQVYTLPPSRDELTKNQVSLWCLVKGFYPSDIAVEWESNGQPENNYKTTPPVLDSDGSFFLYSKLTVDKSRWQQGNVFSCSVMHEALHNHYTQKSLSLSPGGGGSPSDIQMTQSPSSLSASVGDRVTITCRASSSVSYMNWYQQKPGKAPKRWIYDSSKLASGVPSRFSGSGSGTDFTLTISSLQPEDFATYYCQQWSRNPPTFGQGTKVEIKGGGGSGGGGSGGGGSGGGGSQVQLVQSGAEVKKPGASVKVSCKASGYTFTRSTMHWVRQAPGQGLEWIGYINPSSAYTNYAQKFQGRVTLTADKSTSTAYMELSSLRSEDTAVYYCASPQVHYDYNGFPYWGQGTLVTVSS chain 2: QVQLVQSGAEVKKPGASVKVSCKASGYTFTDYYMHWVRQAPGQGLEWMGYFNPYNDYTRYAQKFQGRVTMTRDTSTSTVYMELSSLRSEDTAVYYCARSDGYYDAMDYWGQGTTVTVSSGGGGSGGGGSGGGGSGGGGSDIQMTQSPSSLSASVGDRVTITCRASKSISKYLAWYQQKPGKAPKLLIHSGSSLESGVPSRFSGSGSGTEFTLTISSLQPDDFATYYCQQHIEYPWTFGQGTKVEIKEPKSSDKTHTCPPCPAPPAAAPSVFLFPPKPKDTLMISRTPEVTCVVVDVSHEDPEVKFNWYVDGVEVHNAKTKPREEQYNSTYRVVSVLTVLHQDWLNGKEYKCAVSNKALPAPIEKTISKAKGQPREPQVYTLPPSRDELTKNQVSLSCAVKGFYPSDIAVEWESNGQPENNYKTTPPVLDSDGSFFLVSKLTVDKSRWQQGNVFSCSVMHEALHNHYTQKSLSLSPG
–	1500	2700	20000	–	TSC266 Anti PSMA scFv x Anti CD3 scFv ADAPTIR (bispecific antibody, The anti-PSMA domain is that of PSMA01012 and the anti-CD3 domain is DRA222; also called unoptimized parent construct; TSC266 control (PSMA × CD3 bispecific protein)) DIQMTQSPSAMSASVGDRVTITCRASKSISKYLAWFQQKPGKVPKLRIHSGSTLQSGVPSRFSGSGSGTEFTLTISSLQPEDFATYYCQQHIEYPWTFGQGTKVEIKRGGGGSGGGGSGGGGSQVQLVQSGAEVKKPGASVKVSCKASGYTFTDYYMHWVRQAPGQGLEWMGYFNPYNDYTRYAQKFQGRVTMTRDTSISTAYMELSSLRSDDTAVYYCARSDGYYDAMDYWGQGTTVTVSSSEPKSSDKTHTCPPCPAPEAAGAPSVFLFPPKPKDTLMISRTPEVTCVVVDVSHEDPEVKFNWYVDGVEVHNAKTKPREEQYNSTYRVVSVLTVLHQDWLNGKAYACAVSNKALPAPIEKTISKAKGQPREPQVYTLPPSRDELTKNQVSLTCLVKGFYPSDIAVEWESNGQPENNYKTTPPVLDSDGSFFLYSKLTVDKSRWQQGNVFSCSVMHEALHNHYTQKSLSLSPGQRHNNSSLNTGTQMAGHSPNSQVQLVESGGGVVQPGRSLRLSCKASGYTFTRSTMHWVRQAPGQGLEWIGYINPSSAYTNYNQKFKDRFTISADKSKSTAFLQMDSLRPEDTGVYFCARPQVHYDYNGFPYWGQGTPVTVSSGGGGSGGGGSGGGGSAQDIQMTQSPSSLSASVGDRVTMTCSASSSVSYMNWYQQKPGKAPKRWIYDSSKLASGVPARFSGSGSGTDYTLTISSLQPEDFATYYCQQWSRNPPTFGGGTKLQITSSS
